Assay results reported in US8709741B2, “Methods of diagnosing a plasmodium infection” (priority 2009, dated 2014).

What was measured:
[1] = Specific activities of sPLA2s on human plasma (NEFA release, NEFA-C kit); format: biochemical
Description: Kinetic analysis of human plasma hydrolysis by sPLA2s was performed by mixing on ice 50 μL of crude plasma with recombinant sPLA2s at various final concentrations (respectively 2×, 5× and 10× the IC50 value). At time zero, the mixture was transferred to 37° C. Samples (7 μL) were taken after 5, 15, 30 and 60 minutes of incubation and quickly frozen at −20° C. An aliquot of plasma without enzyme was similarly processed. Concentration of non-esterified fatty acids (NEFAs) in each sample was measured by a discontinuous enzymatic method using the NEFA-C test kit from WAKO, following manufacturer's instructions. The amount of NEFAs in each enzyme-containing plasma sample was subtracted for NEFAs in enzyme-free plasma sample. Specific activity for each of the sPLA2s was determined from the linear part of the curve [NEFA]=f(t). Experiment was repeated three times with plasmas from different donors and different batches of sPLA2s.
Specific activities of sPLA2s on human plasma. Hydrolysis of plasma phospholipids by human and venom sPLA2s was assayed using different incubation times and enzymes concentrations. Hydrolysis was assessed by measuring the amount of NEFAs in samples using the colorimetric assay developed by WAKO (NEFA-C kit). Enzymatic production of NEFAs was corrected for endogenous production of NEFAs measured in the absence of sPLA2. Specific activity for each of the sPLA2s was determined from the linear part of the kinetic curve. Values are the mean of three independent experiments. SD: standard deviation. Anti-P. falciparum activities (IC50) of the respective sPLA2s are given for comparison.

[2] = Enzymatic hydrolysis of purified lipoproteins (NEFA); format: biochemical, human; conditions: 15 h at 37° C., each sPLA2 at approximately 10×IC50
Description: CM/VLDL, LDL and HDL were purified from human plasma and used either fresh (F) or after minimal oxidization by air and light (Ox). After phospholipid content determination, plasma, LDL and HDL were adjusted to 1.6 mg PL/mL final concentration in PBS calcium. Because low amount was available, the CM/VLDL fraction was adjusted to 1.0 mg PL/mL. Each sample was incubated for 15 hours at 37° C., alone or in the presence of recombinant human GX sPLA2 (hGX PLA2; 25 nM), recombinant human GIIF sPLA2 (hGIIF PLA2; 125 nM), bee venom sPLA2 (bvPLA2; 0.18 nM) and Naja mossambica mossambica venom sPLA2 (Naja PLA2; 0.05 nM). NEFAs were quantified using the NEFA-C kit (WAKO). Values are the mean±SD of triplicate measurements. They were normalized by subtracting NEFA amount in the absence of enzyme. Two independent experiments with lipoproteins from different plasmas were performed, which gave similar qualitative results. Results from one experiment are shown;
Plasma and purified LDL and HDL were adjusted to 1.67 mg phospholipid (PL)/mL final concentration in PBS. Because purification yielded low amount of CM/VLDL, the CM/VLDL fraction was adjusted to 1.00 mg PL/mL. CaCl2 (1 mM final) was added to the lipoprotein fractions. 200 μL of each fraction were deposited in a 96-well plate and incubated for 15 hours at 37° C., alone or in the presence of recombinant human GX sPLA2 (hGX PLA2, 25.0 nM), recombinant human GIIF sPLA2 (hGIIF PLA2, 125.0 nM), bee venom sPLA2 (bvPLA2, 0.18 nM) and Naja mossambica mossambica venom sPLA2 (Naja PLA2, 0.05 nM). NEFAs were measured in triplicate using the NEFA-C kit (WAKO). Value from each fraction was normalized by subtracting the NEFA amount in the corresponding fraction without enzyme. Two independent experiments with lipoproteins from different plasmas were performed, which gave similar qualitative results. According to the experiment, maximum hydrolysis reached 50% or 65% of total PLs in the fraction. […]

[3] = test system: P. falciparum blood stages; experiment: Sensitivity of the P. falciparum blood stages to GX sPLA2 (15 h treatment, re-invasion); format: cell-based; conditions: 100 nM
Description: A parasite culture was synchronised on a 4 h window. Parasites aged 0-4 h post-invasion (p.i.) (rings, R), 18-22 h p.i. (trophozoites, T), and 34-38 h p.i. (schizonts, S) were incubated for 15 h in culture conditions with (▪) or without (□) 100 nM recombinant GX sPLA2. Afterwards cells were washed and let grow in normal culture conditions until re-invasion. GX sPLA2 inhibitory activity on the complete parasite cycle was assessed by incubating 0-4 h p.i. parasites for 48 h with GX sPLA2 (cycle). Parasitaemia in each sample was determined from Diff Quick-stained smears. For each stage, 100% parasitaemia was established from parasite growth in the absence of enzyme;
A parasite culture was synchronised on a 4 h-window. Parasites aged 0-4 h post-invasion (rings), 18-22 h post-invasion (trophozoites), and 34-38 h post-invasion (schizonts) were adjusted to 1% parasitaemia and 2% haematocrit in complete medium, and were then incubated in a 96-well plate in a candle jar at 37° C., with or without 100 nM of recombinant GX sPLA2. After 15 hours, cells were centrifuged at 900×g for 2 min, washed in RPMI and re-suspended at a 2% haematocrit in fresh complete medium for further growth. When re-invasion had occurred (P. falciparum invades new RBCs when its 48 hour-development cycle is completed), parasitaemia (%) in each well was determined from Diff Quick-stained smears. GX sPLA2 inhibitory activity on the complete parasite cycle was assessed by incubating rings with the recombinant enzyme for 48 hours.

B1: X: recombinant human group X secreted phospholipase A2 (protein, UniProt O15496 43-165, looked up)
Group 10 secretory …: GILELAGTVGCVGPRTPIAYMKYGCFCGLGGHGQPRDAIDWCCHGHDCCYTRAEEAGCSPKTERYSWQCVNQSVLCGPAENKCQELLCKCDQEIANCLAQTEYNLKYLFYPQFLCEPDSPKCD
- activity on plasma relative to GIIF sPLA2 ([1]; ratio of specific activities): 9 times
- activity on plasma relative to GV sPLA2 ([1]; ratio of specific activities): 30 times
- Specific activity ± SD (μmol NEFA/min × mg enzyme) ([1]; whole human plasma, 37° C., linear part of kinetic curve, mean of three experiments): 8.23 ± 0.92 μmol NEFA/min × mg enzyme
- preferential order of lipoprotein hydrolysis [2]: HDL>LDL>CM/VLDL
- re-invasion after treatment of rings ([3]; rings 0-4 h post-invasion): 25%
- schizonts that completed the cycle after treatment ([3]; schizonts 34-38 h post-invasion): less than 10%
- trophozoites that completed the cycle after treatment ([3]; trophozoites 18-22 h post-invasion): less than 10%
